Assay results published in patent US20020098189A1 (AstraZeneca / MedImmune, published 2002).
Positions count from the first letter of the chain named.

B1: Clone 17 (whole monoclonal antibody) (antibody, V domains shown)
VH: QVTLRESGPALVKPTQTLTLTCTFSGFSLSTAGMSVGWIRQPPGKALEWLADIWWDDKKDYNPSLKSRLTISKDTSKNQVVLKVTNMDPADTATYYCARSMITNFYFDVWGAGTTVTVSS
VL: DIQMTQSPSTLSASVGDRVTITCSASSSVGYMHWYQQKPGKAPKLLIYDTFKLASGVPSRFSGSGSGTEFTLTISSLQPDDFATYYCFQGSFYPFTFGGGTKLEIK
B2: MEDI-493 (clone 16), IgG1 (COR)/kappa (K102) humanized MAb (antibody, V domains shown)
VH: B1 VH with A32S, F105W
VL: B1 VL with S24K, A25C, S26Q, S27L, F51S, F92G
B3: Clone 24 (IgG) (antibody, V domains shown)
VH: B1 VH with D57G, D60H, S67D, S100D, T103F, F105W, A112Q
VL: DIQMTQSPSTLSASVGDRVTITCSLSSRVGYMHWYQQKPGKAPKLLIYDTFKLSSGVPSRFSGSGSGTEFTLTISSLQPDDFATYYCFQGSGYPFTFGGGTKVEIKR
B4: Clone 18 (IgG) (antibody, V domains shown)
VH: B1 VH with D57G, D60S, S67D, S100D, T103F, A112Q
VL: B3 VL with S24L, L25P, F51M, K52Y, L53Q
B5: Clone 23 (IgG) (antibody, V domains shown)
VH: B1 VH with A32P, D57G, D60H, S67D, S100D, T103F, F105W, A112Q
VL: B3 VL with L25P, F51M, K52R, S54A
B6: Clone 21 (IgG) (antibody, V domains shown)
VH: B1 VH with A32P, D60H, S67D, S100D, T103F, A112Q
VL: B3 VL with K52Y
B7: Clone 20 (IgG) (antibody, V domains shown)
VH: B1 VH with D60S, S67D, S100D, T103F, F105W, A112Q
VL: B3 VL with L25P, F51R, K52Y, L53Q
B8: Clone 25 (IgG) (antibody, V domains shown)
VH: B1 VH with D57G, S67D, S100D, T103F, A112Q
VL: B3 VL with L25A
B9: Clone 22 (IgG) (antibody, V domains shown)
VH: B1 VH with A32P, D60H, S67D, S100D, T103F, A112Q
VL: B3 VL with F51R, K52G, S54P
B10: Clone 26 (IgG) (antibody, V domains shown)
VH: B1 VH with D57G, D60S, S67D, S100D, T103F, A112Q
VL: B3 VL with F51M, K52Y, L53Q
B11: Clone 19 (IgG) (antibody, V domains shown)
VH: B1 VH with D60H, S67D, S100D, T103F, A112Q
VL: B3 VL with L25A, K52F, S54D
B12: Clone 27 (Fab) (Fab, V domains shown)
VH: B1 VH with D57G, D60S, S100D, T103F, A112Q
VL: B1 VL with S24L, A25P, S28R, F51M, K52Y, L53Q, A54S, F92G, L103V
B13: Clone 28 (Fab) (Fab, V domains shown)
VH: B1 VH with D60S, S67D, S100D, T103F, F105W, A112Q
VL: B1 VL with A25P, S28R, F51R, K52Y, L53Q, A54S, F92G, L103V
B14: Clone 29 (Fab) (Fab, V domains shown)
VH: B1 VH with D60H, S67D, S100D, T103F, A112Q
VL: B1 VL with S28R, K52F, A54D, F92G, L103V
B15: Reference clone (Fab fragment with the sequences of FIG. 2 and the CDRs of Table 1) (Fab, V domains shown)
VH: B1 VH with A32S, F105W, A112Q
VL: B1 VL with F51S, F92G, L103V
notes: also called basic structure
B16: Clone 1 (Fab) (Fab, V domains shown)
VH: B1 VH with S100D, A112Q
VL: B1 VL with A54T, F92G, L103V
B17: Clone 2 (Fab) (Fab, V domains shown)
VH: B1 VH with S100D, T103F, F105W, A112Q
VL: B1 VL with F92G, L103V
B18: Clone 3 (Fab) (Fab, V domains shown)
VH: B1 VH with S100D, T103F, F105W, A112Q
VL: B1 VL with F51Y, L53Q, A54T, F92G, L103V
B19: Clone 4 (Fab) (Fab, V domains shown)
VH: B1 VH with S100D, T103F, F105W, A112Q
VL: B1 VL with F51R, K52Y, A54S, F92G, L103V
notes: also called H3-3F4
B20: Clone 5 (Fab) (Fab, V domains shown)
VH: B1 VH with S100D, A112Q
VL: B1 VL with F92G, L103V
B21: Clone 6 (Fab) (Fab, V domains shown)
VH: B1 VH with A112Q
VL: B1 VL with L103V
B22: Clone 7 (Fab) (Fab, V domains shown)
VH: B1 VH with S100D, A112Q
VL: B1 VL with S28R, F92G, L103V
B23: Clone 8 (Fab) (Fab, V domains shown)
VH: B1 VH with S100D, A112Q
VL: B1 VL with K52R, F92G, L103V
B24: Clone 9 (Fab) (Fab, V domains shown)
VH: B1 VH with A32P, D60H, S67D, S100D, T103F, A112Q
VL: B1 VL with A25L, S28R, K52Y, A54S, F92G, L103V
B25: Clone 10 (Fab) (Fab, V domains shown)
VH: B1 VH with A32P, D57G, D60H, S67D, S100D, T103F, A112Q
VL: B1 VL with A25L, S28R, F51R, K52G, A54P, F92G, L103V
B26: Clone 11 (Fab) (Fab, V domains shown)
VH: B1 VH with A32P, D57G, D60H, S67D, S100D, T103F, A112Q
VL: B1 VL with A25P, S28R, F51M, K52R, F92G, L103V
B27: Clone 12 (Fab) (Fab, V domains shown)
VH: B1 VH with D57G, D60H, S67D, S100D, T103F, A112Q
VL: B1 VL with A25L, S28R, A54S, F92G, L103V
B28: Clone 13 (Fab) (Fab, V domains shown)
VH: B1 VH with D57G, S67D, S100D, T103F, A112Q
VL: B1 VL with S28R, A54S, F92G, L103V
B29: Clone 14 (Fab) (Fab, V domains shown)
VH: B1 VH with D60H, S67D, S100D, T103F, F105W, A112Q
VL: B1 VL with A25P, S28R, F51Y, K52R, L53H, A54S, F92G, L103V
B30: Clone 15 (Fab) (Fab, V domains shown)
VH: B1 VH with D57G, D60S, S67D, S100D, T103F, A112Q
VL: B1 VL with A25L, S28R, F51M, K52Y, L53Q, A54S, F92G, L103V

molecular target: T1, C-terminal truncated RSV F protein, secreted from recombinant baculovirus-infected cells (respiratory syncytial virus (strain not …, UniProt P03420 26-526)); assay: SPR (BIAcore), F protein immobilized, whole antibody injected
T1 construct: also called F antigen of RSV
T1 sequence (P03420 26-526): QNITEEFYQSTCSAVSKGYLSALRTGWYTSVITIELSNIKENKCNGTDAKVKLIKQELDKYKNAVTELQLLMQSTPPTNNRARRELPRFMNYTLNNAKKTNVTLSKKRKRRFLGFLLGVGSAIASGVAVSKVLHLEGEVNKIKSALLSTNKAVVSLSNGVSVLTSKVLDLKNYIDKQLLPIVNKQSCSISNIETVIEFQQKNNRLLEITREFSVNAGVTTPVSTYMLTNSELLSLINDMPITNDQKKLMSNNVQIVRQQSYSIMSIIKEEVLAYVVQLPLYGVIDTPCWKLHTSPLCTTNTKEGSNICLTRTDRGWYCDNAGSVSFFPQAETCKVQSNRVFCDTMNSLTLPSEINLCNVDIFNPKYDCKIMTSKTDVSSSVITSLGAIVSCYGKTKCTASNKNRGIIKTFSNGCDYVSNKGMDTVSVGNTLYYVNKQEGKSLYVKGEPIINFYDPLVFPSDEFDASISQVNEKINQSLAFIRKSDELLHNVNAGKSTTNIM

Row | Binder | koff [s⁻¹] | kon [M⁻¹ s⁻¹]
1 | B1 | 0.000249 | 109000
2 | B2 | 0.000735 | 204000

substrate: F protein of respiratory syncytial virus (RSV-Long strain), on infectious virus (respiratory syncytial virus (RSV-Long strain)) (UniProt P12568); assay: cell-based or functional assay
Sequence (P12568 26-574): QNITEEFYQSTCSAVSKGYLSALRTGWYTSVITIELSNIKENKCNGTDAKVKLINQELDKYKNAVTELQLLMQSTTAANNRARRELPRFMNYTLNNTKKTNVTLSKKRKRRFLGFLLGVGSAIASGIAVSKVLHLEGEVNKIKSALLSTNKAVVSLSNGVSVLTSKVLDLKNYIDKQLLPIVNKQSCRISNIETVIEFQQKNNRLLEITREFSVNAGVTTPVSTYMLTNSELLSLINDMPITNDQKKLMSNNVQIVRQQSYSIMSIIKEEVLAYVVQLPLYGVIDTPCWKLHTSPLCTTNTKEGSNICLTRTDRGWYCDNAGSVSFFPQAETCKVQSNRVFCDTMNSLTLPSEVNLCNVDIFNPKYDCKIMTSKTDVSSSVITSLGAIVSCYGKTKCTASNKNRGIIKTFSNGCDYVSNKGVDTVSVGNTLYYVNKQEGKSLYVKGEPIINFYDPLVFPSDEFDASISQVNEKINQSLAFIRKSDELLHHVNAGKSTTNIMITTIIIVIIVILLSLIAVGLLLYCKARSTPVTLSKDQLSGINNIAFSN

Row | Binder | Mean IC50 µg/ml, RSV microneutralization [µg/mL] | Mean IC50 (Control) µg/ml, RSV microneutralization [µg/mL]
3 | B3 | 0.0625 | 0.0645
4 | B4 | 0.0342 | 0.0354
5 | B5 | 0.0217 | 0.0289
6 | B6 | 0.0231 | 0.0223
7 | B7 | 0.0337 | 0.0383
8 | B8 | 0.0357 | 0.0354
9 | B9 | 0.0242 | 0.0235
10 | B10 | 0.0376 | 0.0375
11 | B11 | 0.0171 | 0.0154
12 | B12 | 0.0179 | 0.0171
13 | B13 | 0.177 | 0.157
14 | B14 | 0.0414 | 0.0411

molecular target: T2, F protein of respiratory syncytial virus (RSV-Long strain), on infectious virus (respiratory syncytial virus (RSV-Long …, UniProt P12568 26-574)); assay: cell-based or functional assay

Row | Binder | EC50 (nM), RSV microneutralization [nM]
15 | B15 | 3.52
16 | B16 | 2.26
17 | B17 | 5.05
18 | B18 | 4.7
19 | B19 | 3.55
20 | B20 | 2.61
21 | B21 | 2.88
22 | B22 | 1.59
23 | B23 | 2.67
24 | B24 | 0.29
25 | B25 | 1.06
26 | B26 | 20.9
27 | B27 | 3.24
28 | B28 | 0.81
29 | B29 | 2.23
30 | B1 | 2.7
31 | B2 | 6.12
32 | B30 | 0.56

molecular target: T1, C-terminal truncated RSV F protein, …; assay: SPR (BIAcore), F protein immobilized, Fab injected
Method: A typical kinetic study involved the injection of 35 ml of Mab at varying concentrations (25-300 nM) in PBS buffer containing 0.05% Tween-20 (PBS/Tween). The flow rate was maintained at 5 ml/min, giving a 7 min binding phase. Following the injection of Mab, the flow was exchanged with PBS/Tween buffer for 30 min for determining the rate of dissociation. The sensor chip was regenerated between cycles with a 2 min pulse of 10 mM HCI.
More specifically, for measurement of kassoc (or kₒₙ), F protein was directly immobilized by the EDC/NHS method (EDC=N-ethyl-N′-[3-diethylaminopropyl)-carbodiimide). Briefly, 4 μg/ml of F protein in 10 mM NaOAc, pH 4.0 was prepared and about a 30 μl injection gives about 500 RU (response units) of immobilized F protein under the above referenced conditions. The blank flow cell (VnR immobilized-CM dextran surface) was subtracted for kinetic analysis. The column could be regenerated using 100 mM HCI (with 72 seconds of contact time being required for full regeneration). […] The dissociation phase was analyzed from 230 seconds (30 seconds after start of the dissociation phase) to 900 seconds. Kinetics were analyzed by 1:1 Langmuir fitting (global fitting). Measurements were done in HBS-EP buffer (10 mM HEPES, pH 7.4, 150 mM NaCl, 3 mM EDTA, 0.005% (v/v) Surfactant P20.
For measuring k_{off (or k}dissoc) the following conditions were employed. Briefly, 4100 RU of F protein were immobilized (as above) with CM-dextran used as the blank. Here, 3000 RU of Fab was bound (with dissociated Fab high enough to offset machine fluctuation). […] The dissociation phase was 6-15 hours at a flow rate of 5 μl/min.

Row | Binder | koff [s⁻¹] | kon [M⁻¹ s⁻¹]
33 | B15 | 0.00065 | 185000
34 | B16 | 0.000326 | 365000
35 | B17 | 0.000422 | 531000
36 | B18 | 0.000422 | 605000
37 | B19 | 0.000462 | 757000
38 | B20 | 0.000306 | 416000
39 | B21 | 0.00032 | 185000
40 | B22 | 0.000251 | 370000
41 | B23 | 0.000273 | 375000
42 | B24 | 0.000282 | 663000
43 | B25 | 0.000299 | 527000
44 | B26 | 0.000717 | 571000
45 | B27 | 0.000453 | 790000
46 | B28 | 0.00023 | 743000
47 | B29 | 0.00025 | 735000
48 | B30 | 0.00028 | 781000

molecular target: T2, F protein of respiratory syncytial …; assay: cell-based or functional assay; remark: another data set of the same source

Row | Binder | Mean IC50 µg/ml, RSV microneutralization [µg/mL] | Mean IC50 (Control) µg/ml, RSV microneutralization [µg/mL]
49 | B24 | 0.0407 | 0.0326
50 | B25 | 0.0464 | 0.0351
51 | B26 | > 1 | > 1
52 | B27 | 0.157 | 0.125
53 | B28 | 0.0287 | 0.031
54 | B29 | 0.12 | 0.102
55 | B2 | 0.453 | 0.535
56 | B30 | 0.0264 | 0.0258
